“Also recorded” adds a separate entry of the source.
Tests used:
[1] = system: endothelial cells (HUVEC); assay: Growth inhibition of endothelial cells; assay type: cell-based
Method: (§1) Typically, in an anti-proliferation assay, the suppression of growth in the presence of the compound to be tested is measured. For example, the above cells are incubated with the polypeptides of this invention for a suitable time and the decrease in the growth rate relative to a negative control, i.e., cells of the same cell line which have been incubated in media alone, is measured. Growth of the cell culture can be measured by any method acceptable to one of skill, including but not limited to, 3H-thymidine uptake, cell counting and tetrazolium dye uptake.
(§2) By SDS-PAGE, the bacterial product was smaller than the eukaryotic protein. Because prokaryotically expressed proteins are not glycosylated, the difference in molecular weights probably represents the presence of carbohydrate in the eukaryotic protein. Recombinant proteins were then tested in KS, endothelial and control cell lines. Activity was found only in KS cell lines and endothelial cells.

[2] = system: Human bone marrow cells and peripheral blood mononuclear cells; assay: Stem cell clonogenic assays in methylcellulose; assay type: cell-based; conditions: VEGF 10 and 100 ng/mL
Method: Human bone marrow cells and peripheral blood mononuclear cells were harvested from a subject after the administration of high doses of cyclophosphamide and G-CSF. Stem cell clonogenic assays in methylcellulose were performed with IL-3, erythropoietin, and VEGF (10 ng/mL, and 100 ng/mL). VEGF was used to determine if there are progenitor cells with self replication capacity but without adherence to extracellular matrix such as fibronectin. It was also desirable to determine if Saposin B was toxic to endothelial cell specific progenitors for hematopoietic (myeloid or erythroid) lineage cells.
These colonies contained mixture of cells indicating more than one cell lineage generated in response to VEGF. The colonies also contained spindle shaped cells which mark the presence of VEGF receptors.

[3] = system: angiogenesis induced by VEGF or bFGF in chicken allantoic membrane (CAM); assay: Chicken allantoic membrane (CAM) angiogenesis assay; assay type: in vivo; conditions: 48 hours
Method: In order to test anti-angiogenic activity, chicken allantoic membrane (CAM) assays were performed with recombinant Saposin B. Ten day old fertilized chicken eggs were prepared for assay by creating a window in the egg shell, and placing filter paper discs saturated with VEGF or bFGF as positive controls, test compounds, or carrier buffer (negative controls) on the allantoic membrane. The membranes were harvested after 48 hours and analyzed using an Olympus stereomicroscope. The number of branching blood vessels that infiltrated under the discs were counted and photographed. Eight CAMs were studied for test group, and the experiments were repeated at least twice.

T-cell lymphoma (EL-4) = assay: Syngeneic tumor growth in C57BL/6 mice, T-cell lymphoma (EL-4); assay type: in vivo; conditions: 2.5 mg/kg from the day following implantation, two weeks
Method: (§3) FIG. 4: Inhibition of tumor growth in mice. C57BL/6 mice were implanted with Lewis lung carcinoma, melanoma (B 16), and T-cell lymphoma (EL4). KS Y-1 was implanted in nude mice as a positive control. One day after implantation 2.5 mg/kg of Saposin B was injected into the mice subcutaneously.
(§4) To determine whether this anti-tumor effect was reproducible with different classes of syngeneic-tumors, C57BL/6 mice were implanted with Lewis lung carcinoma, melanoma (B16), and T-cell lymphoma (EL-4) cell lines. KS Y-1 was implanted into nude mice for a positive control. The day following tumor implantation, 2.5 mg/kg of Saposin B was administered intraperitoneally. Tumor size was measured three times a week for two weeks at which time the mice were sacrificed for analysis. […] See, FIG. 4

[4] = system: CD34+/Flk-1+ cells from cord blood; assay: Growth of CD34+/Flk-1+ progenitors on fibronectin coated dishes; assay type: cell-based, human; conditions: 50 ng/mL
Source text: A bone marrow derived human CD34+/Flk-1+ progenitor cell can be mobilized into the blood stream in response to tumor induced signals such as VEGF and cytokine production. These cells can target to sites of angiogenesis where they mature into activated endothelial cells and thus contribute to the generation of new blood vessels at the tumor site. By blocking the production of these cells or by targeting these cells (i.e., the CD34+/Flk-1+ progenitors and the activated endothelial cell they can become), the angiogenesis/vasculogenesis required for tumor growth can be reduced or halted. […] The adherent cells take on a spindle-shaped morphology characteristic of the activated vascular endothelial cells typical of the angiogenic process. These cells express endothelial-specific markers including factor VIII, ulex europaeus agglutinin-1 (UEA-1), endothelial constitutive nitric oxide synthase (ecNOS), and E selectin. Further, when these cells (peripheral blood Flk+ progenitors) are infused into mice, they incorporate into newly formed blood vessels at site of injury. These observation identify CD34+/Flk-1+ bone marrow derived progenitors as a putative precursor to vascular endothelial cells. Preventing these cells from colonizing at distal sites of angiogenesis in tumors has enormous implication for the treatment of tumors. […]

Lewis lung carcinoma = assay: Syngeneic tumor growth in C57BL/6 mice, Lewis lung carcinoma; assay type: in vivo; conditions: 2.5 mg/kg from the day following implantation, two weeks
Method: as §3, §4

KS cell lines [5] = assay: Growth inhibition of KS cell lines by recombinant proteins; assay type: cell-based; conditions: recombinant or naturally occurring protein
Method: as §1, §2

KS-SLK or KS Y-1 tumors = assay: KS tumor growth in nude mice; assay type: in vivo
Method: FIG. 6: Effect of pentapeptide DVCQD (SEQ ID NO:28) on the growth of established KS Y-1 tumors in mice. Mice were implanted with the tumor on day one. Treatment with the peptide was started on the following day at a dose of 50 mg/kg subcutaneously daily. […] The arrow marks initiation of daily subcutaneous dosing.
In order to determine the anti-angiogenic activity of the recombinant Saposin B, tumor cells were implanted in immuno-deficient mice and treated with either Saposin B or buffer alone.
Nude mice were injected with 2×10^6 KS-SLK or KS Y-1 cells subcutaneously in a total volume of 100 μL. After one week of tumor development, the mice were injected subcutaneously daily with either PBS or Saposin B at concentrations of 1, 10 and 20 mg/kg for a total protein concentration of […]. The tumor size was measured three times a week. The results represent the median of 4 mice in each group.
as §4
In further experiments, KS tumors were allowed to grow for five days before treatment with Saposin B (1 and 5 mg/kg daily at a distal site from the timer tumor). In control mice, tumors grew to a weight of 555+mg. […] Tumors excised at the conclusion of the experiments were also examined for apoptosis, blood vessel density, and mitotic index. […] Thus, contrary to the results in vitro, Saposin B has an inhibitory effect against […] tumors.

KS cell lines [6] = assay: KS cell migration in transwell plates; assay type: cell-based; conditions: chemotaxis induced by VEGF or bFGF
Method: The assays were done in double chamber wells separated by fibrinogen-coated membrane. Chemotaxis was induced by bFGF (25 ng/mL) in the lower chamber. Endothelial cells or KS cells (5×10^4/mL) were placed in the upper chamber in the presence and absence of test polypeptides. Taxol at 10 ng/mL was used as a known inhibitor of migration. Cell migration across the membrane was quantitated after an overnight incubation.
Angiogenesis is mediated by complex biochemical processes including degradation of the basement membrane under existing blood vessel endothelial cells, followed by proliferation and migration of endothelial cells, followed by formation of capillary loops, and recruitment of vascular smooth muscle cells to encase the newly formed vessels and provide stability. KS and endothelial cell migration in the presence of Saposin B was studied in transwell culture plates with 8 μm pore membranes (Costar, Cambridge, Mass.).
Briefly, wells were coated with fibronectin (25 μg/mL) overnight, and endothelial cells or KS cells were plated in the upper chamber with 100 μL of DMEM/0.4% FCS. 500 μL of DMEM/0.4% FCS was added to the lower chamber and incubated at 37° C. for one hour. The test polypeptides, at various concentrations, were added to the upper chamber, and chemotactic agents (VEGF or bFGF at 20 ng/mL) were added to the lower cell-culture chambers. The plates were incubated for 5 hr at 37° C. and the cells crossing the fibronectin-coated membrane were counted after wiping the cells off the membrane in the upper chamber with a cotton swab.
The cells that traversed the membrane were fixed with Diff-Quik stain according to the manufacturer's instruction (Dade Diagnostics Inc., Aguada, PR). The cells were counted under a microscope at 320× in four randomly selected fields. The experiments were done in duplicate and repeated at least three times.

[7] = system: CD34+ cord blood derived cells; assay: Viability of CD34+ cord blood derived cells; assay type: cell-based, human
Source text: However in the presence of Saposin B, CD34^+/Flk-1^+ progenitor growth was inhibited.
Saposin B was found not to be toxic to most CD34^+ cord blood derived cells, since the difference in viability of Saposin B treated CD34^+ cells was only around 20% when compared to control cells. Thus Saposin B not only targets fully differentiated and activated endothelial cells, but also a circulating progenitor, previously shown to target angiogenic sites.

melanoma (B16) = assay: Syngeneic tumor growth in C57BL/6 mice, melanoma (B16); assay type: in vivo; conditions: 2.5 mg/kg from the day following implantation, two weeks
Method: as §3, §4

[8] = KS tumors grown five days before treatment, 1 and 5 mg/kg daily

B1: Saposin B: polypeptide fragment of Prosaposin, positions 190 to 269 (SEQ ID NO:2); tested as recombinant protein (protein, listed as Homo sapiens)
chain: GDVCQDCIQMVTDIQTAVRTNSTFVQALVEHVKEECDRLGPGMADICKNYISQYSEIAIQMMMHMQPKEICALVGFCDEVK
modifications: Saposin B
notes: tested as recombinant protein
[1]
  growth inhibition / activity against endothelial cells: dose dependent growth inhibition
[2]
  effect on colonies generated with VEGF: loss of spindle shaped cells
[3]
  inhibition of angiogenesis (number of blood vessel branches) in CAMs: effectively blocked angiogenesis; also recorded: inhibited by Saposin B in a dose-dependent fashion
T-cell lymphoma (EL-4)
  tumor growth: profound inhibition of tumor growth
[4]
  CD34+/Flk-1+ progenitor growth: inhibited
Lewis lung carcinoma
  tumor growth: profound inhibition of tumor growth
KS cell lines [5]
  growth inhibition / activity against KS cell lines: dose dependent growth inhibition
KS-SLK or KS Y-1 tumors; KS Y-1 in nude mice, 2.5 mg/kg from the day following implantation, two weeks
  tumor growth: profound inhibition of tumor growth
KS-SLK or KS Y-1 tumors; [8]
  apoptosis in excised tumors: increase in apoptosis
  blood vessel density in excised tumors: decrease in blood vessel density
  weights of excised tumors relative to controls: approximately 23%
KS-SLK or KS Y-1 tumors; nude mice, KS-SLK or KS Y-1, subcutaneously daily after one week, 1, 10 and 20 mg/kg
  tumor growth: markedly retarded
KS cell lines [6]
  inhibition of KS cell migration: compete inhibition of cell migration
[7]
  difference in viability of treated CD34+ cells compared to control cells: around 20%
Melanoma (B16)
  tumor growth: profound inhibition of tumor growth

— patent US7341730B1, “Inhibitors of angiogenesis and tumor growth” (University of Southern California, priority 1998, dated 2008)
